Test results published in patent US10828372B2, “Compositions and methods for the inhibition of fibrosis” (WISCONSIN ALUMNI RESEARCH FOUNDATION, priority 2017, dated 2020).
Where two headings read alike, the source gives them in different places. Where no end group is shown, it is not given here.

How the values were obtained:
[1] = system: human foreskin fibroblasts, AH1F cells; experiment: Cell viability of fibroblast monolayers in matrix assembly assays (Cell Titer-Glo / AlamarBlue); assay type: cell-based; conditions: for cell viability: doses ranging from 1 to 20 μM
Procedure: (§1) Microtiter fibronectin matrix assembly assays: Exogenous plasma fibronectin matrix assembly assay: Binding and incorporation of AlexaFluor® 488-plasma fibronectin (A488-FN) to fibroblast monolayers (human foreskin fibroblasts, AH1F cells was carried out using methods known in the art. Briefly, fibroblasts (60000 per well) were allowed to adhere and spread for 2 hours in microtiter plates in 2% fetal calf serum (FCS)-containing DMEM. Peptides or modulators to be tested were added followed by 28 nM A488-FN. Cell monolayers with or without peptides and A488FN were incubated overnight at 37° C. with 5% CO2. Cell monolayers in microwells were washed with PBS or HBSS containing Ca^2+, Mg^2+. Fluorescence in 96-well plates was read using a microplate reader using bottom-readout capabilities at 485 nm excitation and 525 nm emission with 20 nm bandwidths. To estimate cell viability per well after the washes and measurement of fluorescence, an equal volume of luminescence reagent (Cell Titer-Glo®) was added followed by quantification of luminescence. Fluorescence of wells to which A488FN had not been added, i.e. intrinsic fluorescence of the cell monolayer was subtracted from fluorescence values of wells containing ligand. Data is presented respectively for fibronectin fibrillogenesis or cell viability as percent of fluorescence or luminescence values for wells with no peptides. Microplate microscopy was used to ascertain that fluorescence measurements correspond to fibrillary fibronectin.
Endogenous (cellular) fibronectin assembly assay: This immunochemical assay measures the ECM incorporation of EDA-containing fibronectin synthesized by human fibroblasts and human proximal tubular epithelial cells. Human proximal epithelial cells, HK-2 cells, were obtained from ATCC (CRL-2190). The EDA+ fibronectin is a splice variant synthesized and secreted by a variety of cells mostly during embryonic development and during wound healing, ECM remodeling, or fibrotic conditions in the adult. Fibroblasts (AH1F) were cultured in DMEM (Gibco) containing 10% fetal calf serum, and human proximal tubular epithelial cells (HK-2) were cultured in keratinocyte serum free medium (KSFM, containing pituitary extract and rEGF, Invitrogen/Thermo Fisher). Both media also contained 2.5 mM glutamine, 100 IU/ml penicillin, and 100 μg/ml streptomycin. […] Fluorescence of AlamarBlue® was read at 555 nm excitation and 585 nm emission. […] Similar to the measurement of exogenous A488-FN fluorescence, A488-EDA fluorescence was read using microplate reader equipped with bottom-readout capabilities at 485 nm excitation and 525 nm emission. […]

[2] = system: AlexaFluor 488-plasma fibronectin (A488-FN); experiment: Microtiter exogenous plasma fibronectin matrix assembly assay (AH1F fibroblasts); assay type: cell-based, human; conditions: for inhibition of fibronectin fibrillogenesis: concentrations up to 20 μM
Procedure: as §1
To determine whether PEG-FUD retained its ability to inhibit fibronectin fibrillogenesis, PEG-FUD and FUD were compared in cell-based fibronectin matrix assembly assays. The ability of PEG-FUD to inhibit the incorporation of exogenous fibronectin derived from plasma and also of fibronectin endogenously produced by the cultured cells was measured, since fibrosis is likely to contain fibronectin from both sources. Shown in FIG. 12 is the level of fibrils formed from exogenously added A488-FN fibrils in the presence of increasing amounts FUD or PEG-FUD. FIGS. 13 and 14 show endogenous EDA+-fibronectin fibrillogenesis in human fibroblast and human proximal tubular epithelial cells, respectively. In all fluorescence panels, it is evident that PEG-FUD is as efficient as FUD at inhibiting fibronectin assembly dose-dependently with an IC50 of approximately 30 nM. As previously reported, cell viability is negligibly affected by FUD, and PEG-FUD behaves almost identically. There was an approximately 20% decrease in fibroblast viability at the highest concentration of FUD tested (500 nM) with PEG-FUD retaining fibroblast viability almost at 100%. […] Human proximal tubular epithelial cell viability was retained at approximately 100% with treatment by both FUD and PEG-FUD.
Having established the suitability of PEG-FUD as inhibitor of FN fibrillogenesis, a mutated form of FUD, mFUD, was tested as a control peptide. mFUD was PEGylated as described above and the conjugate tested in the exogenous A488-FN binding assay as described for FIG. 1A. […] A maximum concentration of 20 μM was tested because it approximates the concentration used in vivo, both in this study and in the liver fibrosis study.

[3] = exogenous A488-FN, doses up to 20 μM, read-out: IC50 of fibrillogenesis inhibition
[4] = exogenous A488-plasma fibronectin, human fibroblasts, doses up to 500 nM, read-out: IC50 of fibronectin assembly inhibition

AlexaFluor 488-plasma fibronectin (A488-FN), sequence (P02751 32-608 limits assumed): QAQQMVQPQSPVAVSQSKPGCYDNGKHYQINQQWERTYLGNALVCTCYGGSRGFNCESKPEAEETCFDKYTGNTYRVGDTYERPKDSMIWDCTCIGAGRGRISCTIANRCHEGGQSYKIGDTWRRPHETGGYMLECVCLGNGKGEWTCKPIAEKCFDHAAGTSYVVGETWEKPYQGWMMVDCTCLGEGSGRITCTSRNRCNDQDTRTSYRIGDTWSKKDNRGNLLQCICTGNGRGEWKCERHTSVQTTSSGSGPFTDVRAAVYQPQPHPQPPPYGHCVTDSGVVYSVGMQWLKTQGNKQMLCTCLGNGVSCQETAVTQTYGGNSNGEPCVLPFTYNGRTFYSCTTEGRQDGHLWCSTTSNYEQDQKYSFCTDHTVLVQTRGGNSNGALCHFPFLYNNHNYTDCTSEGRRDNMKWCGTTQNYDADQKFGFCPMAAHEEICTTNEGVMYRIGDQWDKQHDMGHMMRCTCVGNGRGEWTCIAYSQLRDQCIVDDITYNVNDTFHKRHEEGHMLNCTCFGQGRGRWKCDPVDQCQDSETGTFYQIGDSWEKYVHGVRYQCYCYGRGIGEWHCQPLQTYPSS

Substance	cell viability [1]	decrease in fibroblast viability ([1]; highest concentration tested (500 nM))	inhibition of assembly of plasma fibronectin by fibroblasts ([2]; doses up to 500 nM)	inhibition of fibronectin fibrillogenesis ([2]; exogenous A488-FN)	IC50 [2, 3]	IC50 [2, 4]	fibroblast viability ([1]; doses up to 500 nM)
FUD: 49 amino acid FUD peptide, SEQ ID NO: 1, recombinantly expressed, His-tag removed; inhibitor of fibronectin fibrillogenesis (KDQSPLAGESGETEYITEVYGNQQNPVDIDKKLPNETGFSGNMVETEDT; human) [reference compound]	80%	approximately 20%	70%	60%	25 to 30 nM	~30 nM	–
PEG-FUD: PEGylated FUD prepared as in Example 1, PEG size not stated; approximately 27 kDa by mass spectrometry, likely the 20 kDa conjugate (KDQSPLAGESGETEYITEVYGNQQNPVDIDKKLPNETGFSGNMVETEDT; not fully specified (N-terminus); also: PEG size not given here)	80%	–	70%	60%	25 to 30 nM	~30 nM	approximately 100%
